Results: the DeepSol protein solubility set

experiment: soluble on expression in E. coli; label from the status in PepcDB or PDB records

| Sequence | soluble on expression in E. coli |
| --- | --- |
| SRPVGPLARRGCCSAPGTPEVPLTRERYPVQRLPFSTVSKQDLAAFERIVPGGVVTDPEALQAPNVDWLRTLRGCSKVLLRPRTSEEVSHILRHCHERNLAVNPQGGNTGMVGGSVPVFDEIILSTARMNRVLSFHSVSGILVCQAGCVLEELSRYVEERDFIMPLDLGAKGSCHIGGNVATNAGGLRFLRYGSLHGTVLGLEVVLADGTVLDCLTSLRKDNTGYDLKQLFIGSEGTLGIITTVSILCPPKPRAVNVAFLGCPGFAEVLQTFSTCKGMLGEILSAFEFMDAVCMQLVGRHLHLASPVQESPFYVLIETSGSNAGHDAEKLGHFLEHALGSGLVTDGTMATDQRKVKMLWALRERITEALSRDGYVYKYDLSLPVERLYDIVTDLRARLGPHAKHVVGYGHLGDGNLHLNVTAEAFSPSLLAALEPHVYEWTAGQQGSVSAEHGVGFRKRDVLGYSKPPGALQLMQQLKALLDPKGILNPYKTLPSQA | soluble |
| SRVQILKDFVKQHFPATPLLDYALEVEKITTSKKPNLILNVDGFIGVAFVDMLRNCGSFTREEADEYVDIGALNGIFVLGRSMGFIGHYLDQKRLKQGLYRHPWDDISYVLPEHMSM | soluble |
| SRYAIYWTPEDGPLARFGRSWLGWDPVTAEPAAHPAIEDLPRDVALITQAPRKYGLHATLKPPFRLADGADVTDLHAAVVALCPYLAPVTLPGLKLDRIGGFLALVPAGNEEPLADLAAEVMRALDGFRAPLTEAELARRRPERLTPRQRGHLADWGYPYVLDDYRFHVTLTGELPEAELAEVVTVLEPLLEPILAEPVRIASLCLFAEASDGRFRMLERLPIT | not soluble |
| SSGLVPRGSHMSEMIYGIHAVQALLERAPERFQEVFILKGREDKRLLPLIHALESQGVVIQLANRQYLDEKSDGAVHQGIIARVKPGRQYQENDLPDLIASLDQPFLLILDGVTDPHNLGACLRSADAAGVHAVIVPKDRSAQLNATAKKVACGAAESVPLIRVTNLARTMRMLQEENIWIVGTAGEADHTLYQSKMTGRLALVMGAEGEGMRRLTREHCDELISIPMAGSVSSLNVSVATGICLFEAVRQRS | soluble |
| SSGRSVRAETRSRAKDDIKKVMAATERVRRWEKKWVTVGDTSLRIFKWVPVTETKQIYKPKGAGPAVRELKGFPTDVVLENARSVLLDFQDDNSNQSFLSDAYQSNTKVDSSSNSSPQHVSEAVSPSHPPYYRTEDSQPPTLGQESMEAEREASTTSSEVTDEPPTLIKEDVLSLSTQEEEEAIGAPPLKRVCTEHNSTVS | soluble |
| SSKSLKKLVEESREKNQPEVDMSDRGISNMLDVNGLFTLSHITQLVLSHNKLTMVPPNIAELKNLEVLNFFNNQIEELPTQISSLQKLKHLNLGMNRLNTLPRGFGSLPALEVLDLTYNNLSENSLPGNFFYLTTLRALYLSDNDFEILPPDIGKLTKLQILSLRDNDLISLPKEIGELTQLKELHIQGNRLTVLPPELGNLDLTGQKQVFKAENNPWVTPIADQFQLGVSHVFEYIRSETYKYLYGRHMQANPEPPKKNNDKSKKISRKPLAAKNR | soluble |
| SSNAKFDQFSSDFQTFNAKFDQFSNDMNAFRSDFQAFKDDFARFNQRFDNFATKYR | soluble |
| SSPATPVPPDSILESPFEEMALVRGGWLWRQSSILRRWKRNWFALWLDGTLGYYHDETAQDEEDRVVIHFNVRDIKVGQECQDVQPPEGRSRDGLLTVNLREGSRLHLCAETRDDAIAWKTALMEANSTPAPAGATVPPRSRRVCPKVRCTTLSWNPCKVERRIWVRVYSPYQDYYEVVPPNAHEATYVRSYYGPPYAGPGVTHVIVREDPCYSSGAPLAMGMLAGAATGAALGSLMWSPCWF | not soluble |
| SSQFWYSEETASRLAEELLQQAGEHGRIACLSAPSVYQKLKQLESVRSDGVSAVLLEFDRRFAAYGDEFVFYDYNNPLCLPEDLLPQSFDIVIADPPYLSEECLSKVTLTVKHLTKGKILLCTGAIMEEHAGKLLDLKMCSFLPRHNHNLANEFRCYVNYESRLLS | soluble |
| SSSEGFICPQCMKSLGSADELFKHYEAVHDAGND | soluble |
| SSSESEKDKERLIQAAKLFFFHIRDLVSFINRFVELFNLTMKTQILPMNLNEESCIKDFFEQMIRNFKEMQLMVDGKHKQMQKEPLCSKVLTAMTSAVEKCATIAPHHTAEDMLRNIQTSGAALVLKTSHVLVNLETSLSLLMQFPIMGLRLSDLYREETKEQSDATSDATTSEKNKSPECPKATTEETLRKLQDVLSPENAHTPVEAAADELEQFVKSMEITLQVLQKSIKTMEGDIFVLTQVQGK | soluble |
| STITTEEVLVTVFQFLEKATEYPYNDPHKTLALVVHGILLTHGFRPSEEEPPENVDNWSLSVENAKIPNCFEENKYGGSYRHYKSCMTFEVRMVPLDKYVVVNAVASDVDRVFYCELKLEKYFKDTVLEGGKLVVPLRNLKWSQILKNVTDMIAVLRTQIIYALVPDSAKEGYEAKTSETHVGQSTNQQSQDSRQFSLPSRDPLRVVPPVGSRYYPSAYIDEDRDSIPVLGQGDLYPGGLPRLERTFPSGPLDGSFAAPDNGSLMGPRHSMFQRRDQRPGPGNNMLPRGAVPPGARFDEFGPRFPPDETYSTLAGWRHRQEMPNNDVDEPPPPEMYM | soluble |
| STPELLSGHIPPGHIPKPIVMPDYVAKYPVIQTDDDRERYKAVFQDQFSEYKELSAEVQAILRKFDELDTVMSRLPHHSENRQEHERISRIHEEFRKKKNDPSFLEKKERCDYLKNKLSHIKQRIQEYDKVMNWDTQGYP | soluble |
| STRFLEKRHKKKKATNKERILSYKPIHAIEQENSFRSSRCSNQTVEVSAVEDSRSALVGFFESNEPSESVTLKGKRERQLLASKTLISQLKEENCRLKERLNEVKDQLELKEKIALVQQENNDLEAEVLEWKAKFYESESEKERILASRSRPKDGYEIVQESLAQQPGTTSFYDYKFRQLVHKLTRMNAIHSKHNDKEYHKCDIVNESKDRSITFELFIDEEQEEIEYVPVQLNGVSQKLPSYLQDNISFDVQNAPIFFTKIMHSLFSK | soluble |
| STSGPGGPAAAAGGRKENHQWYVCNREKLCESLQAVFVQSYLDQGTQIFLNNSIEKSGWLFIQLYHSFVSSVFSLFMSRTSINGLLGRGSMFVFSPDQFQRLLKINPDWKTHRLLDLGAGDGEVTKIMSPHFEEIYATELSETMIWQLQKKKYRVLGINEWQNTGFQYDVISCLNLLDRCDQPLTLLKDIRSVLEPTRGRVILALVLPFHPYVENVGGKWEKPSEILEIKGQNWEEQVNSLPEVFRKAGFVIEAFTRLPYLCEGDMYNDYYVLDDAVFVLKPV | soluble |
| STSLPQISTLMREKSVENKLKVKAKDDHMVPSGLYEVRAIQLPGGSWRHYYVDHSSKETYWILPYSHPDGASSHPLEKLPVYLPSYEECVDETNPLAVPEVCSPARD | soluble |
| STSPTATKYDVFLSFRGVDTRRNFISFLYKEFVRRKIRTFKDDKELENGRRISPELKRAIEESKFAVVVVSVNYAASPWCLDELVKIMDFENKGSITVMPIFYGVDPCHLRRQIGDVAEQFKKHEAREEDHEKVASWRRALTSLASISGDCSSKCEDEAKLVDEIADKISKNLMTVTTISNGKNLVGIDTHMKALNKKLDLNSNKSLRVVGIWARGYNGRSALAKYVYQDICHHFDSHCFLGSVKRISQGRHLSHLHEEFLIRIQGSKHNLKDQKVLLVADDVYKLEQLDALAEDFNGFGPGSVVIITTQDKHLFVSAGIKLVYEVELLKFQKVCELFRQFAFKKRDISAAVKLVYYRATNWLGCLSGRSG | soluble |
| SVDYVFNKVMQPHQQMRIRVALGIEDDLRGGGYNVDQSKIAIGSGGFMGKGFLKGTQTKLKYVPEQDTDFIFCTVGEEQG | not soluble |
| SVHKPSGQIMAVKRIRSTVDEKEQKQLLMDLDVVMRSSDCPYIVQFYGALFREGDCWICMELMSTSFDKFYKYVYSVLDDVIPEEILGKITLATVKALNHLKENLKIIHRDIKPSNILLDRSGNIKLCDFGISGQLVDSIAKTRDAGCRPYMAPERIDPSASRQGYDVRSDVWSLGITLYELATGRFPYPKWNSVFDQLTQVVKGDPPQLSNSEEREFSPSFINFVNLCLTKDESKRPKYKELLKHPFILMYEERTVEVACYVCKILDQMPATPSSPMYVD | soluble |
| SVLQVLHIPDERLRKVAKPVEEVNAEIQRIVDDMFETMYAEEGIGLAATQVDIHQRIIVIDVSENRDERLVLINPELLEKSGETGIEEGCLSIPEQRALVPRAEKVKIRALDRDGKPFELEADGLLAICIQHEMDHLVGKLFMDYLSPLKQQRIRQKVEKLDRLKARAPNSSSVDKLAAALEHHHHHH | soluble |
| SVTSSQVMLMPAHDSAKPTGFGIMVTSLDLLRDHQKVIHTLWFIDDVVARELGGFDGFCRRERVLLLFVDSTNTTLSFTRNDMTCVPRQGGADSDHWLFKRHLALLLPLSFAQVYEGFISFYEEEDKHISWDIKSCSSSSHQ | not soluble |
| SYYHHHHHHDYDIPTTENLYFQGAMGSFGSKDAAADGKPLVVTTIGMIADAVKNIAQGDVHLKGLMGPGVDPHLYTATAGDVEWLGNADLILYNGLHLETKMGEVFSKLRGSRLVVAVSETIPVSQRLSLEEAEFDPHVWFDVKLWSYSVKAVYESLCKLLPGKTREFTQRYQAYQQQLDKLDAYVRRKAQSLPAERRVLVTAHDAFGYFSRAYGFEVKGLQGVSTASEASAHDMQELAAFIAQRKLPAIFIESSIPHKNVEALRDAVQARGHVVQIGGELFSDAMGDAGTSEGTYVGMVTHNIDTIVAALAR | soluble |
| TAALVINANPFTLGHQYLVEKAAAENELLHLFMVSDDSSLIPFSVRKQLILAGTEHLSNICYHETGPYIISKSIFPSYFQKDQASVIESQARIDLAIFIQIAKYLGIKGRYVGEEPTSLVTGIYNQIMLQELPKQAIDCIVVPRKTYKDGPISASTVRKALKEGNEQILRELLPSTSLNYFLSPEAQPLIKKIQKADNVIHY | not soluble |
| TAWILMVPIALLYVKNWEEECCKQKKEEFREQFRESIQTLSAILKVGYSVENAIRETWKEICPIYKKKTRIIKEYETMVHQLDLNMTAEEVMKQFADRVKEEDVENFVTVFGAAKRLGGDSIAIIRHAADAIGEKMEVEREIQVMLTSKKLEFKIMCVIPFVIILYMRSAFPEFM | not soluble |
| TDIVLWDKPGEKVLLLGNQAIVRGALEGNIGVYAAYPGTPSSEITDTMAMVAKKAGVYMEYSTNEKVAFETALSASWAGLRAMTAMKHVGLNVAMDSFMTVSYMGINGGLIVVVADDPSMWSSQNEQDTRAIAKFANIPVLEPSSVQEAKDMVKYAFEISEKYGQMVILRTTTRSSHMRGDVVLGELPQEIKEGKRKFGNFKKNPEKYVDIPAFQRPKHPWLLETIEKFREEFNTSPFNWIEGPEDAKVGIIAPGLSYAYVKEALAWLGIDNVKILKLGTPFPVPYGLLEKFFNGLERVLIVEELEPVVEEQVKVWAFDNNINIEIHGKDLVPRVYEMTTRRAVEAVAKFLGVETPINFQEIDEKYKKVQEMVPPRPPSLCPACPHRNTFFAIRKAATPRAIFPSDIGCYTLGVLPPLKTVDTTIAMGGSIGVAHGLSIALNGALGEEQRKTGKEKKIIVATIGDSTFFHTGLPALANAIYNRSNVLIVVMDNMVTAMTGDQPNPGTGETPHGPGKRILIEEVARAMGADFVAVVDPYDIKETYETIKKALEVEGVSVVVSRRACALYRIGQLRREGKQWPIYQVNEEKCTGCKICINAYGCPAIYWDAEK | not soluble |
| TDRVIMSIFTSDKLVDQSWGSLAYLAQLHVEKKFPVDIELYSEVDTIEKMEESLHASIDRKTELIIGHGREFSDIFTKVAPSYPTVRFVTIHGSATYENQTVYTFEKGKIELIAALAATMKSKTRKVALIDAYDGREDEPYFERGLEKYANDIEFFYYVVNSRHDGKQAKAVMDKLIKEGVDVVYSRGNAFNRDVIHYAKQHDIYVIGFLDDQSYLGEEHVLTSVLNDVTQAYVKI | not soluble |
